# Source: patent US20160068605A1 (Janssen / Centocor, published 2016)
# Positions count from the first letter of the chain named. In names and notes the source's numbering stands. Several values for one entry are separate records, joined by “and”; a condition that tells them apart may be missing. Equal values may be shown once.
# T1: Recombinant human CD123 SP2 ECD protein (human, UniProt P26951 101-303)
# T1 construct: also called rhCD123 SP2; CD123 ECD SP2
# T1 sequence: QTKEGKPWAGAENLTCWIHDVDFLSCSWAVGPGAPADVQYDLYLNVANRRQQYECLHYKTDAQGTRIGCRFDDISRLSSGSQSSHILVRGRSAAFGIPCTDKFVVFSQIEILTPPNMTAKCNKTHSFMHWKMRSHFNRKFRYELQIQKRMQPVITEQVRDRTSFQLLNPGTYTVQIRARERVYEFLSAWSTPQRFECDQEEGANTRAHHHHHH
# T2: Recombinant human CD123 SP1 ECD-His tag protein (human, UniProt P26951 20-305)
# T2 construct: bought from R&D Systems (#301-R3/CF); biotinylated for some assays; also called rhCD123 SP1; huCD123 ECD SP1
# T2 sequence: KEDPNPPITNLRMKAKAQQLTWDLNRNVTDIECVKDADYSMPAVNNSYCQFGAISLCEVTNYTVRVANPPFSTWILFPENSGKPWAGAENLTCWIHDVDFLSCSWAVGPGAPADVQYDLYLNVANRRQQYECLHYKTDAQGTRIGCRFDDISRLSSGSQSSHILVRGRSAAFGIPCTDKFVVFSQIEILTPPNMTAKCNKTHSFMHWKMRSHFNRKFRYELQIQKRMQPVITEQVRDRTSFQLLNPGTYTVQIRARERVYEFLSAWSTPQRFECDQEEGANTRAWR
# T3: cyno CD123 ECD displayed on pDisplay-transfected cells (cynomolgus monkey)
# T3 construct: ECD anchored on the surface of stably transfected HEK293 cells; also called cynoCD123 SP1 cells; cynoCD123 cells
# T3 chain: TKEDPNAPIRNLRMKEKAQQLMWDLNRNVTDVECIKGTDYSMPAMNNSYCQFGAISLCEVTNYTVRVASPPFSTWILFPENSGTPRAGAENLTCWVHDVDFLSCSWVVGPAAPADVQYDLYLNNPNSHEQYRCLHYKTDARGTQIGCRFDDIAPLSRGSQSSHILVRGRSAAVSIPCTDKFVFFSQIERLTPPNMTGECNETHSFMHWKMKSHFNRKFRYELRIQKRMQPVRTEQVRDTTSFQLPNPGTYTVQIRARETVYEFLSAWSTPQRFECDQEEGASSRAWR
# B1: CD123 null 2 (bispecific antibody, human IgG4 S228P, lambda, F234A L235A)
# heavy: EVQLLESGGGLVQPGGSLRLSCAASGFTFNTYAMNWVRQAPGKGLEWVARIRSKYNNYATYYADSVKGRFTISRDNSKNTLYLQMNSLRAEDTAVYYCVKHGNFGNSYVSWFAYWGQGTLVTVSSASTKGPSVFPLAPCSRSTSESTAALGCLVKDYFPEPVTVSWNSGALTSGVHTFPAVLQSSGLYSLSSVVTVPSSSLGTKTYTCNVDHKPSNTKVDKRVESKYGPPCPPCPAPEAAGGPSVFLFPPKPKDTLMISRTPEVTCVVVDVSQEDPEVQFNWYVDGVEVHNAKTKPREEQFNSTYRVVSVLTVLHQDWLNGKEYKCKVSNKGLPSSIEKTISKAKGQPREPQVYTLPPSQEEMTKNQVSLTCLVKGFYPSDIAVEWESNGQPENNYKTTPPVLDSDGSFLLYSKLTVDKSRWQEGNVFSCSVMHEALHNHYTQKSLSLSLGK
# light: QAVVTQEPSLTVSPGGTVTLTCRSSTGAVTTSNYANWVQQKPGQAPRGLIGGTNKRAPGTPARFSGSLLGGKAALTLSGAQPEDEAEYYCALWYSNLWVFGGGTKLTVLGQPKAAPSVTLFPPSSEELQANKATLVCLISDFYPGAVTVAWKADSSPVKAGVETTTPSKQSNNKYAASSYLSLTPEQWKSHRSYSCQVTHEGSTVEKTVAPTECS
# VH: not shown
# VL: not shown
# notes: also called B21M IgG4 x CD3B217
# B2: CD123 null 1 (bispecific antibody, human IgG4 S228P, lambda, F234A L235A)
# heavy: B1 heavy with L5V, D64A, N76D, T80S, R89K, A90T, V99A, K100R
# light: B1 light with A2T, A80V
# VH: not shown
# VL: not shown
# notes: also called B21M IgG4 x CD3B219
# B3: CD123 null 3 (bispecific antibody, human IgG4 S228P, lambda, F234A L235A)
# heavy: B1 heavy
# light: B1 light with A2T, A80V
# VH: not shown
# VL: not shown
# notes: also called B21M IgG4 x CD3B218
# B4: I3RB5 (antibody, IgG1, V domains shown)
# VH: EVQLLESGGGLVQPGGSLRLSCAASGFTFSGYWMSWVRQAPGKGLEWVSGINYDGGSTYYADSVKGRFTISRDNSKNTLYLQMNSLRAEDTAVYYCAKDHFLAEFDYWGQGTLVTVSS
# VL: not shown
# notes: IgG1; also called I3RB05
# B5: I3RB16 (antibody, IgG1, V domains shown)
# VH: QVQLVQSGAEVKKPGSSVKVSCKASGGTFSSYAISWVRQAPGQGLEWMGGIIPIFGTANYAQKFQGRVTITADESTSTAYMELSSLRSEDTAVYYCARGAVWGDQWFDYWGQGTLVTVSS
# VL: not shown
# notes: IgG1
# B6: CD3B146 (antibody, IgG1, V domains shown)
# VH: EVQLVESGGGLVQPGGSLRLSCAASGFTFNTYAMNWVRQAPGKGLEWVARIRSKYNNYATYYAASVKGRFTISRDDSKNSLYLQMNSLKTEDTAVYYCARHGNFGNSYVSWFAYWGQGTLVTVSS
# VL: QTVVTQEPSLTVSPGGTVTLTCRSSTGAVTTSNYANWVQQKPGQAPRGLIGGTNKRAPGTPARFSGSLLGGKAALTLSGVQPEDEAEYYCALWYSNLWVFGGGTKLTVL
# notes: IgG1 constant region with L234A, L235A, F405L; human lambda constant region; also called CD3B146 hu IgG1-AlaAla F405L
# B7: I3RB1 (antibody, IgG1, V domains shown)
# VH: EVQLLESGGGLVQPGGSLRLSCAASGFTFSDYGMSWVRQAPGKGLEWVSVIRGGGSSKYYADSVKGRFTISRDNSKNTLYLQMNSLRAEDTAVYYCAKHSGSFRFNELDYWGQGTLVTVSS
# VL: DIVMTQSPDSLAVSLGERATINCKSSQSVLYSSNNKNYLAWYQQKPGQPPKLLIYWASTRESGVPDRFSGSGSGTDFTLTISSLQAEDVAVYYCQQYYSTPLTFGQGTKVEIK
# notes: IgG1; also called I3RB01
# B8: I3RB33 (antibody, IgG1, V domains shown)
# VH: QVQLVQSGAEVKKPGSSVKVSCKASGGTFSSYGISWVRQAPGQGLEWMGGIIPIFGTANYAQKFQGRVTITADESTSTAYMELSSLRSEDTAVYYCARGYWHWNYDYLDYWGQGTLVTVSS
# VL: EIVLTQSPATLSLSPGERATLSCRASQSVNDWLAWYQQKPGQAPRLLIYGASNRATGIPARFSGSGSGTDFTLTISSLEPEDFAVYYCQQYKRAPYTFGQGTKVEIK
# notes: IgG1
# B9: I3RB30 (antibody, IgG1, V domains shown)
# VH: QVQLVQSGAEVKKPGSSVKVSCKASGGTFSSYAISWVRQAPGQGLEWMGWIIPIFGTANYAQKFQGRVTITADESTSTAYMELSSLRSEDTAVYYCARLVYSSDFDYWGQGTLVTVSS
# VL: B8 VL with N30A, D31N, G50Y, K92D, R93G, A94W, Y96R
# notes: IgG1; also called 13RB30
# B10: I3RB40 (antibody, IgG1, V domains shown)
# VH: B5 VH with A100Q, V101W, G103A, Q105T
# VL: B8 VL with N30A, D31K, K92H, R93T, Y96W
# notes: IgG1
# B11: I3RB20 (antibody, IgG1, V domains shown)
# VH: B8 VH with G33A, G99D, Y100D, W101Q, H102I, N104G, Y105S, D106Y, Y107H
# VL: not shown
# notes: IgG1
# B12: I3RB36 (antibody, IgG1, V domains shown)
# VH: B8 VH with G99D, Y100L, W101H, H102V, N104A, D106S, Y107N, L108F
# VL: not shown
# notes: IgG1
# B13: I3RB19 (antibody, IgG1, V domains shown)
# VH: EVQLLESGGGLVQPGGSLRLSCAASGFTFSNYAMSWVRQAPGKGLEWVSGIRGNGSSTYYADSVKGRFTISRDNSKNTLYLQMNSLRAEDTAVYYCAKGGPIGARFPDYLDYWGQGTLVTVSS
# VL: DIQMTQSPSSLSASVGDRVTITCRASQSIGDFLNWYQQKPGKAPKLLIYYASSLQSGVPSRFSGSGSGTDFTLTISSLQPEDFATYYCQQSYSTPLTFGQGTKVEIK
# notes: IgG1; also called 13RB19
# What was measured:
# [1] = biological target: T4, cell-surface CD3 epsilon on primary human T cells (human, UniProt P07766 23-207); assay: flow cytometry competition with labeled CD3B146 on T cells
# T4 construct: whole, on cells; part of the CD3/TCR complex on the cells
# T4 sequence (P07766 23-207): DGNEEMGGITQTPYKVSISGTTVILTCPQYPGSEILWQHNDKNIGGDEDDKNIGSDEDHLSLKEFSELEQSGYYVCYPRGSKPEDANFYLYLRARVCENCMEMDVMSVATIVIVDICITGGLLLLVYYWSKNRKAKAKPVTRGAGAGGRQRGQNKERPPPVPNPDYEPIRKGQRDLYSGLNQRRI
# Text: (§1) The format involved competition binding using a fixed concentration of labeled anti-CD3 mAb of known affinity and increasing concentrations of unlabeled test Abs (Ashkenazi A et al. PNAS: 88:10535, 1991.).
# [2] = biological target: T5, cell-surface CD3 epsilon on primary cynomolgus T cells (cynomolgus monkey, UniProt Q95LI5 22-198); assay: as above
# T5 construct: whole, on cells; also called cynomolgus CD3e; Cyno T-cells
# T5 sequence (Q95LI5 22-198): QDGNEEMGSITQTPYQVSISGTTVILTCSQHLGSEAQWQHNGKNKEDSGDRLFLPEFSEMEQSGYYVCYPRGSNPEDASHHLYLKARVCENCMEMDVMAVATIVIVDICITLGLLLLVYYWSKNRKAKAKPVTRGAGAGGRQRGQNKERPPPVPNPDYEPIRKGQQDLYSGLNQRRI
# Text: as §1
# [3] = biological target: T1, Recombinant human CD123 SP2 ECD protein; assay: SPR ProteOn, captured mAb
# Procedure: (§2) The biosensor surface was prepared by covalently coupling Goat anti-Human IgG (Fc) to the surface of a GLC chip (BioRad) using the manufacturer instructions for amine-coupling chemistry. […] The RU immobilized also included a goat anti-mouse Fc antibody that was added to capture other antibodies not included in the ones reported here. Since the mixture was 1:1 about 50% of these RU immobilized are expected to be goat anti-human Fc. The kinetic experiments were performed at 25° C. in running buffer (PBS pH 7.4, 0.005% P20, 3 mM EDTA). […] The reference spots (Goat anti-Human IgG (Fc)-modified surface) containing no candidate captured were used as a reference surface. Capture of mAb was followed by 3 min injection (association phase) of antigen at 40 μL/min, followed by 10 min of buffer flow (dissociation phase). […] Data was processed on the instrument software. Double reference subtraction of the data was performed by subtracting the curves generated by buffer injection from the reference-subtracted curves for analyte injections. Kinetic analysis of the data was performed using 1:1 Langmuir binding model with group fit. The result for each mAb was reported in the format of Kₐ (kon or on-rate), Kd (koff or off-rate), KD (Equilibrium dissociation constant) (Table 5).
# [4] = biological target: T2, Recombinant human CD123 SP1 ECD-His tag …; assay: SPR ProteOn, captured mAb
# Procedure: as §2
# [5] = biological target: T3, cyno CD123 ECD displayed on …; assay: MSD cell binding on 293F pDisplay cells; fold change over background; parental 293F cells as control
# Procedure: The object of the screening assay was to identify antibodies that bound to cells expressing hCD123 SP1 and SP2 as well as cross reactivity with cells expressing cynoCD123 SP1.
# Cells were immobilized and phages were assayed in triplicate. […] 5000 cells per well were plated into a 384 well plate (MA6000, cat. L21XB, MSD) and allowed to adhere for 2 hr. Cells were then blocked with 20% FBS in PBS (Gibco) for 15 mins. Antibody supernatants were then added and left at RT for 1 hr. Cells were washed 3 times with PBS and a ruthenium labeled secondary antibody (Jackson Immuno Research) was then added at 1 μg/mL and incubated for 1 hr at room temperature. A further washing step was then applied and 35 μL per well of MSD Read buffer T (surfactant free) was then added and incubated for 30 min for detection. Plates were then read using Sector Imager 2400 (MSD). Data was normalized to controls and graphed using GraphPad Prism Version 5. A positive binder was determined to be a hit with a signal 3× greater than background (FIGS. 2A, B and C).
binder,measurement,setting,value
B1,Kd,[1],266 nM
same,Kd,[2],217 nM
B2,Kd,[1],13.2 nM
same,Kd,[2],13.4 nM
B3,Kd,[1],200 nM
same,Kd,[2],237 nM
B4,Kd,[3],4.88 nM and 4.09 nM
same,Kd,[4],12.8 nM and 12.9 nM
B5,binding result,[5],no binding (tested: 10 µg/mL)
B6,Kd,[1],3.2 nM
same,Kd,[2],1.1 nM
B7,binding result,[5],no binding (tested: 10 µg/mL)
B8,binding result,[3],no binding (tested: 400 nM)
same,Kd,[4],4.23 nM
same,koff,[4],0.00177 s⁻¹
same,kon,[4],417000 M⁻¹ s⁻¹
same,binding result,[5],binds
B9,Kd,[3],330 nM
same,koff,[3],0.048 s⁻¹
same,kon,[3],145000 M⁻¹ s⁻¹
same,Kd,[4],4.17 nM
same,koff,[4],0.00302 s⁻¹
same,kon,[4],725000 M⁻¹ s⁻¹
same,binding result,[5],no binding (tested: 10 µg/mL)
B10,binding result,[3],no binding (tested: 400 nM)
same,Kd,[4],6.02 nM
same,koff,[4],0.00346 s⁻¹
same,kon,[4],574000 M⁻¹ s⁻¹
same,binding result,[5],no binding (tested: 10 µg/mL)
B11,Kd,[4],1.68 nM
same,koff,[4],0.00106 s⁻¹
same,kon,[4],631000 M⁻¹ s⁻¹
B12,binding result,[3],no binding (tested: 400 nM)
same,Kd,[4],2.47 nM
same,koff,[4],0.00166 s⁻¹
same,kon,[4],675000 M⁻¹ s⁻¹
B13,Kd,[3],48.3 nM
same,koff,[3],0.0161 s⁻¹
same,kon,[3],334000 M⁻¹ s⁻¹
same,Kd,[4],119 nM
same,koff,[4],0.0251 s⁻¹
same,kon,[4],211000 M⁻¹ s⁻¹
same,binding result,[5],no binding (tested: 10 µg/mL)
